Results from patent US20090075898A1 (YEDA RESEARCH AND DEVELOPMENT CO LTD AT THE WEIZMANN …, published 2009).
Ends that are not written are not given here. * marks the point of attachment. Biotin = O=C1N[C@H]2[C@H](CS[C@H]2CCCCC(=O)*)N1

T1: C5a (UniProt P01031 678-751)
T1 construct: domain: C5a; Control analyte in SPR
T1 sequence (looked up): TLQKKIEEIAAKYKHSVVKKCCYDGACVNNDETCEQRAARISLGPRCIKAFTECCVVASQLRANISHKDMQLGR

T2: β-chain of the high affinity IgE receptor (FcεRI) on mouse bone marrow derived mast cells (mouse, UniProt P20490 1-235)
T2 sequence (looked up): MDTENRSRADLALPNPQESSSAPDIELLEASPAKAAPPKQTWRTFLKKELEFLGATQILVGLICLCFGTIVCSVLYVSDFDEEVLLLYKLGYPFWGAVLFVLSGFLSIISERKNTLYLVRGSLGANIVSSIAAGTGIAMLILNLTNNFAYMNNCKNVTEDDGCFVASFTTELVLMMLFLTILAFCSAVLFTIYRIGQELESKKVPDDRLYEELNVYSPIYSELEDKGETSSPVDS

T3: multisubunit FcεRI receptor complex on rat RBL-2H3 cells and rat peritoneal mast cells (rat, UniProt P12371 24-245; P13386 1-243; P20411 19-86)
T3 sequence (looked up) 1: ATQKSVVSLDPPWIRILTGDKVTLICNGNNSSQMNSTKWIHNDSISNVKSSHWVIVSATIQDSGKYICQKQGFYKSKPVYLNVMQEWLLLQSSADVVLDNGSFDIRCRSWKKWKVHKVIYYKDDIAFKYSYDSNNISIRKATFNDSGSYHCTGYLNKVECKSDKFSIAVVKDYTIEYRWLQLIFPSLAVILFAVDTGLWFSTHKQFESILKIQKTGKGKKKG
T3 sequence (looked up) 2: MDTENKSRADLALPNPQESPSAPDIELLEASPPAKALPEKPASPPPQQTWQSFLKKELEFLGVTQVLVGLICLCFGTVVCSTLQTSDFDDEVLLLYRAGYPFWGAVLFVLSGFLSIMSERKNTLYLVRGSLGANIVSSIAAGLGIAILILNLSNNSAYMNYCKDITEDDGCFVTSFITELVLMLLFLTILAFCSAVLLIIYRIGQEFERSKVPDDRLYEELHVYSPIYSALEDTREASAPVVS
T3 sequence (looked up) 3: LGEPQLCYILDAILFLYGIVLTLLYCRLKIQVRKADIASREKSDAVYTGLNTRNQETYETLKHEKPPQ

B1: human complement component C3a (ligand)
chain: not shown

Tests used:
C5a = molecular target: T1, C5a; experiment: SPR (BIACORE 2000), peptide on streptavidin chip, C5a as analyte
[1] = molecular target: B1; experiment: SPR (BIACORE 2000), biotinylated peptide on streptavidin chip, C3a as analyte; Kd = koff/kon from kobs plots; first extracellular loop of the human protein
[2] = molecular target: B1; experiment: SPR (BIACORE 2000), peptide on streptavidin chip, C3a as analyte
[3] = molecular target: T2, β-chain of the high affinity IgE …; experiment: cell-based or functional assay
[4] = molecular target: T3, multisubunit FcεRI receptor complex on …; experiment: cell-based or functional assay

Row | Binder | binding result (C5a) | Kd [1] [nM] | binding result [2] | Inhibitory effect (IC50, µM) on the IgE-mediated degranulation of BMMC [3] [µM] | Inhibitory effect (IC50, µM) on the IgE-mediated degranulation of RBL-2H3 [4] [µM]
1 | Biotin-SVLDISHIEGDIFSSFKAGY (also called first extracellular loop of human FcεRI β-chain) [biotinylated peptide of the 1st extracellular loop of the human FcεRI β chain] | no binding | 250 |  |  | 
2 | Biotin-KSLAYIHIHSCQKFFETKCFMAS (cysteine pairing not given here, also called second extracellular loop of human FcεRI β-chain) [biotinylated peptide of the 2nd extracellular loop of the human FcεRI β chain] | no binding |  | no binding |  | 
3 | B1 |  |  |  | 0.2 | 2.4
